Experimental data taken from patent US20220025032A1 (Novartis, published 2022).
Like-named read-outs stand apart in the source and are kept apart here.

T1: Human BTC (human, UniProt P35070 32-111)
T1 construct: Soluble human BTC of the Biacore, ELISA, MSD and cell assays; also called human betacellulin; soluble human BTC
T1 sequence: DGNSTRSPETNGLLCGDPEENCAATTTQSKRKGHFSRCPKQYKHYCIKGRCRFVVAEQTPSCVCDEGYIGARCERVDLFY

T2: Human BTC-avitag-biotin (human, UniProt P35070 32-111, biotin on the avitag)
T2 construct: also called biotin-BTC; soluble human BTC-avitag-biotin
T2 sequence: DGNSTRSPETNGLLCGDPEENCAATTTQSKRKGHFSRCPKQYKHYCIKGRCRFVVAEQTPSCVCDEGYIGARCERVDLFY

T3: membrane-bound human BTC on 293F-hBTC cells (human, UniProt P35070 32-111)
T3 sequence: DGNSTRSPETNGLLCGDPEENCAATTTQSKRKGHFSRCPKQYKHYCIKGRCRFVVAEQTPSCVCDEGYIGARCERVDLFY

T4: Rat BTC (rat, UniProt Q9JJM4 32-111)
T4 sequence: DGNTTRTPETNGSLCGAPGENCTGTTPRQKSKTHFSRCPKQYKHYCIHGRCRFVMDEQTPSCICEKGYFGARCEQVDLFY

T5: Mouse BTC (mouse, UniProt Q05928 32-111, limits assumed)
T5 sequence (looked up): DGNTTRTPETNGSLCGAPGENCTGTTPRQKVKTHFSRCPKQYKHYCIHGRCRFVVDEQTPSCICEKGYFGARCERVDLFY

T6: Rabbit BTC (rabbit, UniProt G1SJ89 32-111)
T6 sequence: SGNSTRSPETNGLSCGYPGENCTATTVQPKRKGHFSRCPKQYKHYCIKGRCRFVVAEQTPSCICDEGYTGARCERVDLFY

T7: Cyno BTC (cynomolgus, UniProt A0A2K5X5E5 32-111)
T7 construct: also called cynomolgus BTC
T7 sequence: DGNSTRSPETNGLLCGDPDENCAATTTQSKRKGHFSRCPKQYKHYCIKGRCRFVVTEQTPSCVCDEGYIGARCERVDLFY


What was measured:
Human BTC [1] = target: T1, Human BTC; experiment: MSD-based inhibition of BTC binding to ErbB4
Human BTC [2] = target: T1, Human BTC; experiment: cell-based inhibition of BTC binding to ErbB4
Human BTC [3] = target: T1, Human BTC; experiment: MSD-based inhibition of BTC binding to ErbB1
Human BTC-avitag-biotin [4] = target: T2, Human BTC-avitag-biotin; experiment: flow cytometry: inhibition of biotin-BTC binding to HKB11 cells over-expressing ErbB4; y axis Fluorescent Intensity
Experimental: (§1) In order to assess potency of the Fabs and bispecific in neutralizing binding of BTC to its receptor Erb 1 or ErbB4, the following assay was performed. HKB11 over-expressing either ErbB1 or ErbB4 cells were plated 1×10⁵ cells/well. Cells were washed once with FACS buffer by spun down at 1200 rpm for 5 minutes and supernatant removed. Next, the Fab sample dilutions and BTC were prepared in FACS buffer. Human BTC-avitag-biotin was diluted to a fixed concentration of 15 nM. The test Fab samples were prepared at a starting concentration of 40 nM and titrated for 9 points at a serial dilution of 1:2. Both biotin-BTC and the test Fab samples are incubated for 30 minutes at room temperature. The pre-incubated samples were then added to the cell plate at 100 μl per well in duplicate and incubated for 1 hour on ice. The plate was then washed once in FACS buffer and spun down at 1200 rpm for 5 minutes and supernatant removed. After suspending the cell pellet with 100 μl/well of diluted secondary antibody streptavidin-Alexa Fluor488 (1:2000) in FACS buffer, the cells were then incubated for 60 min on ice. The cells were washed once with FACS buffer and re-suspended in 120 μl of FACS buffer for flow cytometric analysis.
(§2) Measurements were performed on Attune Flow Cytometry machine. Data were analysed using the Flow Jo software. The live cell populations analysed were gated in forward and side scattering (FSC-A/SSC-A dot plot). The interval gate was established on the control histogram, which was obtained with sample incubated in streptavidin-Alexa Fluor488 only, and subsequently, determined percent of positive binding events of cells carrying membrane-bound receptor ErbB1 or ErbB4 and biotin-BTC. The median of fluorescence intensity (MFI) value was also derived for the live cell population. MFI values were then used to calculate for percent inhibition of test sample and subsequently plotted in GraphPad Prism 7.03 using nonlinear regression (curve fit) model to generate IC50 value.

Human BTC [5] = target: T1, Human BTC; experiment: cell-based or functional assay
[6] = target: T3, membrane-bound human BTC on 293F-hBTC …; experiment: cell-based or functional assay
Human BTC-avitag-biotin [7] = target: T2, Human BTC-avitag-biotin; experiment: flow cytometry: inhibition of biotin-BTC binding to HKB11 cells over-expressing ErbB1; y axis Fluorescent Intensity
Experimental: as §1, §2

Rat BTC = target: T4, Rat BTC; experiment: SPR (Biacore/ProteOn)
Mouse BTC = target: T5, Mouse BTC; experiment: SPR (Biacore/ProteOn)
Rabbit BTC = target: T6, Rabbit BTC; experiment: SPR (Biacore/ProteOn)
Human BTC [8] = target: T1, Human BTC; experiment: SPR (Biacore/ProteOn)
Cyno BTC = target: T7, Cyno BTC; experiment: SPR (Biacore/ProteOn)
[9] = target: T3, membrane-bound human BTC on 293F-hBTC …; experiment: flow cytometry on 293F cells with membrane-bound human BTC; y axis % Pos Binding
Experimental: (§3) After washing the cells, the cells were dissociated using Versene at 37° C. The cells were washed with FACS buffer and plated at 100 μl in a 96 well plate using cells at 1×10⁶ cells/ml. Then 100 μl of a serial dilution of antibodies starting at 50 nM was used. The cells were incubated, washed and then treated with the secondary anti-human Fab-FITC antibody. The antibodies only bound to the cells expressing BTC. After which the cells were washed and analyzed on the Attune Flow Cytometry. All data analysis was carried out using Flow Jo software.
In FIG. 6A, Flow cytometry was used to assess the binding of NVS11 to membrane-bound BTC using an anti-human Fab antibody for detection.

Human BTC [10] = target: T1, Human BTC; experiment: SPR Biacore T200, anti-Fab capture, antigen as analyte
Human VEGF165 [11] = target: T8, Human VEGF165 (human, UniProt P15692 27-191); experiment: SPR Biacore T200, anti-Fab capture
T8 construct: mature; biotinylated in the VEGFR2 ELISAs; also called human VEGF-A; VEGF-A
T8 sequence (P15692 other isoform, or with tags, fused parts or gaps): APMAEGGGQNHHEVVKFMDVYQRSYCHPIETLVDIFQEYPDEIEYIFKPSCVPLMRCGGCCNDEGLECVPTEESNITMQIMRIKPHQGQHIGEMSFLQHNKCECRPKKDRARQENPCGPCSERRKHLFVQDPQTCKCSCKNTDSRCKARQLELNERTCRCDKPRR

Human BTC [12] = target: T1, Human BTC; experiment: cell-based inhibition of BTC binding to ErbB1
[13] = target: T3, membrane-bound human BTC on 293F-hBTC …; experiment: flow cytometry, 293F cells with BTC against 293F
[14] = target: T3, membrane-bound human BTC on 293F-hBTC …; experiment: flow cytometry on 293F cells with membrane-bound human BTC; y axis % Pos Binding; remark: listed apart in the source
Experimental: as §3

Human BTC-avitag-biotin [15] = target: T2, Human BTC-avitag-biotin; experiment: flow cytometry, BTC-ErbB4 Cell Binding Inhibition with HKB11 cells over-expressing human ErbB4
Experimental: as §1, with “The plate was then washed once in FACS buffer and spun down at 1200 rpm for 5 minutes and supernatant removed. After suspending the cell pellet with 100 μl/well of diluted secondary antibody streptavidin-Alexa Fluor488 (1:2000) in FACS buffer, the cells were then incubated for 60 min on ice. The cells were washed once with FACS buffer and re-suspended in 120 μl of FACS buffer for flow cytometric analysis.” left out
as §2, with “MFI values were then used to calculate for percent inhibition of test sample and subsequently plotted in GraphPad Prism 7.03 using nonlinear regression (curve fit) model to generate IC50 value.” left out

Human VEGF165 [16] = target: T8, Human VEGF165; experiment: competition ELISA: antibody pre-incubated with 400 pM VEGF-biotin, added to coated VEGFR2, streptavidin-HRP detection; y axis OD
Experimental: (§4) The plates were then washed 3 times using 1λTBST. The plates were blocked in 2% BSA diluent (0.1% Tween 20/0.1% TirtonX100) overnight. After blocking, the plates were washed 3 times using TB ST and then the sample mixture was added at 20 μl/well. The sample mixture consisted a final fixed concentration of VEGF-biotin (in-house) at 400 pM and a 15 point 1:2 serial dilution of the antibody starting at 20 nM. The sample mixture was pre-incubated for 1 hour prior to adding to the plate and then incubated for another hour at room temperature on the plate. Afterwards, the plate was washed 3 times using TBST and 20 μl/well of Streptavidin-HRP diluted at 1:5000 was added for an incubation time of 1 hour. The plates were washed 3 times in TBST and then 20 μl/well of TMB substrate was added. TMB is a chromogen that yields a blue color when oxidized. TMB was incubated for 10 minutes until the signal saturated in the no antibody samples, and then 10 μl/well of 2N sulfuric acid was added which then changes the blue color to yellow and this now has a maximum absorbance at 450 nm.

Human VEGF165 [17] = target: T8, Human VEGF165; experiment: as above; remark: listed apart in the source
Experimental: as §4

Human VEGF165 [18] = target: T8, Human VEGF165; experiment: as above; remark: listed apart in the source
Experimental: as §4

Human VEGF165 [19] = target: T8, Human VEGF165; experiment: SPR Biacore T200, anti-Fab capture, antigen as analyte (cells shifted left after the merged BTC cell)
[20] = target: T3, membrane-bound human BTC on 293F-hBTC …; experiment: flow cytometry on 293F cells with membrane-bound human BTC, anti-human Fab detection
Experimental: as §3

Human VEGF165 [21] = target: T8, Human VEGF165; experiment: competition ELISA: antibody pre-incubated with biotinylated human VEGF, added to coated human VEGFR2-Fc, streptavidin-HRP detection; blocked partner VEGFR2-Fc
Experimental: NVS11 neutralization of VEGF was determined by ELISA. Various concentrations of NVS11 was pre-incubated with biotinylated human VEGF and added to VEGFR2-Fc coated plates.

Human BTC [22] = target: T1, Human BTC; experiment: sandwich ELISA: BTC coated, Fab titrated, detection with VEGF-biotin (bridging readout)
Experimental: A sandwich enzyme linked immunosorbent assay (ELISA) was performed by coating either BTC or VEGF, then adding a titration of NVS11 followed by detection with the second target, either biotinylated BTC or biotinylated VEGF. […] Neither of the single Fabs, NVS1 or NVS8, could bind to both BTC and VEGF at the same time.

MSD-based binding inhibition BTC/ErbB4 (Human BTC [1]) [%] | Cell-based binding inhibition BTC/ErbB4 (Human BTC [2]) [%] | MSD-based binding inhibition BTC/ErbB1 (Human BTC [3]) [%] | IC50 (Human BTC-avitag-biotin [4]) [pM] | ADR/Res pErbB3 (IC50 in nM) (Human BTC [5]) [nM] | Neutralization of juxtacrine signaling [6] [%] | IC50 (Human BTC-avitag-biotin [7]) [pM] | Kd (Rat BTC) [pM] | Kd (Mouse BTC) [pM] | Kd (Rabbit BTC) [pM] | Kd (Human BTC [8]) [pM] | Kd (Cyno BTC) [pM] | Kd (Human BTC [10]) [pM] | Cell-based binding inhibition BTC/ErbB1 (Human BTC [12]) [%] | Binding to membrane-anchored BTC (median, X above 293F) [13] [X above 293F] | Binder | other results
> 90 | > 90 | > 90 | 2040 | 7.89 | 99 | 1810 | 20 | < 1 | 17 | 1.4 | 5.4 | 4.4 | > 90 | > 10 | NVS3 (Fab, V domains shown, also called Fab NVS3; anti-BTC Fab) VH: QVQLLESGGGLVQPGGSLRLSCAASGFTFSSYAMSWVRQAPGKGLEWVSGLGHVGYTTYTDSVKGRFTISRDNSKNTLYLQMNSLRAEDTAVYYCARDYLDFGYYFDVWGQGTLVTVSS VL: SYELTQPLSVSVALGQTARITCSGDKIGKKYVHWYQQKPGQAPVLVIYDDSDRPSGIPERFSGSNSGNTATLTISRAQAGDEADYYCQAWDMQSVVFGGGTKLTVLG | A431 pERK (column head: IC50 in nM; cell printed as percent) (Human BTC [5]): > 90%; EC50 [9]: 322 pM; binding result (Human VEGF165 [11]): no binding
> 90 | > 90 | > 90 | 1800 | 6.1 | 87 | 1610 | 8 | 5 | 1 | 5 | 12 | 4.3 | > 90 | > 10 | NVS4 (Fab, V domains shown, also called NVS4 Fab; Fab NVS4) VH: QVQLLESGGGLVQPGGSLRLSCAASGFTFSRYWISWVRQAPGKGLEWVSYIDSTGTFINYADSVKGRFTISRDNSKNTLYLQMNSLRAEDTAVYYCARGGSLFDYWGQGTLVTVSS VL: DIQMTQSPSSLSASVGDRVTITCRASQGIISYLGWYQQKPGKAPKLLIYAASSLQSGVPSRFSGSGSGTDFTLTISSLQPEDFATYYCQQYDALNTFGQGTKVEIKR | EC50 [14]: 238 pM; A431 pERK (IC50 in nM) (Human BTC [5]): 0.49 nM; inhibition (Human BTC [5]): 99.4%
 |  |  |  |  |  |  |  |  |  |  |  |  |  |  | NVS8 (Fab, V domains shown, Fab version of the anti-VEGF 1008 scFv; also called anti-VEGF Fab) VH: EVQLVESGGGLVQPGGSLRLSCTASGFSLTDYYYMTWVRQAPGKGLEWVGFIDPDDDPYYATWAKGRFTISRDNSKNTLYLQMNSLRAEDTAVYYCAGGDHNSGWGLDIWGQGTLVTVSS VL: EIVMTQSPSTLSASVGDRVIITCQASEIIHSWLAWYQQKPGKAPKLLIYLASTLASGVPSRFSGSGSGAEFTLTISSLQPDDFATYYCQNVYLASTNGANFGQGTKLTVLK | binding result (Human BTC-avitag-biotin [15]): no binding (tested: about 25 nM); IC50 (Human VEGF165 [16]): 1350 pM; IC50 (Human VEGF165 [17]): 1350 pM; IC50 (Human VEGF165 [18]): 737 pM; Kd (Human VEGF165 [19]): 3 pM; binding result [20]: no binding (tested: about 25 nM); IC50 (read off the curve) (Human VEGF165 [21]): ~700 pM; binding result (Human BTC [22]): no binding (tested: about 10-20 nM (last marker hidden))
